Laboratory results as given in the supplement of paper PMC11246515.
± gives the standard deviation of the averaged measurements.

Assay: total protein half-life in vivo (active degradation + dilution); higher = more stable protein
[1] = E. coli NCM3722 delta-clpP delta-lon delta-hslV, growth: N-lim chemostat, doubling time 6 h
[2] = E. coli NCM3722 delta-clpP, growth: N-lim chemostat, doubling time 6 h
[3] = E. coli NCM3722 delta-hslV, growth: N-lim chemostat, doubling time 6 h
[4] = E. coli NCM3722 delta-lon, growth: N-lim chemostat, doubling time 6 h
[5] = E. coli NCM3722 delta-smpB, growth: N-lim chemostat, doubling time 6 h
[6] = wild type E. coli NCM3722, growth: C-lim chemostat, doubling time 3 h
[7] = wild type E. coli NCM3722, growth: C-lim chemostat, doubling time 6 h
[8] = wild type E. coli NCM3722, growth: C-lim chemostat, doubling time 12 h
[9] = wild type E. coli NCM3722, growth: N-lim chemostat, doubling time 6 h
[10] = wild type E. coli NCM3722, growth: N-lim chemostat, doubling time 12 h
[11] = wild type E. coli NCM3722, growth: P-lim chemostat, doubling time 6 h
[12] = wild type E. coli NCM3722, growth: P-lim chemostat, doubling time 12 h

For “MATLTAKNLAKAYKGRRVVEDVSLTVNSGEIVGLLGPNGAGKTTTFYMVVGIVPRDAGNIIIDDDDISLLPLHARARRGIGYLPQEASIFRRLSVYDNLMAVLQIRDDLSAEQREDRANELMEEFHIEHLRDSMGQSLSGGERRRVEIARALAANPKFILLDEPFAGVDPISVIDIKRIIEHLRDSGLGVLITDHNVRETLAVCERAYIVSQGHLIAHGTPTEILQDEHVKRVYLGEDFRL [P0A9V1]”, which “total protein half-life in vivo” value [1] is on record?
The value was 6.21 ± 0.31 h.

What about the “total protein half-life in vivo” value [2] of the same sequence?
The value was 6.33 ± 0.48 h.

And the “total protein half-life in vivo” value [3]?
The value was 5.919 ± 0.031 h.

And the “total protein half-life in vivo” value [4]?
Its value is 6.05 ± 0.57 h.

And the “total protein half-life in vivo” value [5]?
Its value is 5.51 ± 0.55 h.

And the “total protein half-life in vivo” value [6]?
The value was 2.811 ± 0.004 h.

And the “total protein half-life in vivo” value [7]?
The value was 6.061 ± 0.04 h.

And the “total protein half-life in vivo” value [8]?
Its value is 11.2 ± 0.66 h.

What about the “total protein half-life in vivo” value [9] of the same sequence?
Its value is 5.52 ± 0.24 h.

What about the “total protein half-life in vivo” value [10] of the same sequence?
The value was 13.3 ± 0.87 h.

What about the “total protein half-life in vivo” value [11] of the same sequence?
Its value is 5.46 ± 0.24 h.

What about the “total protein half-life in vivo” value [12] of the same sequence?
The value was 12.4 ± 0.82 h.

Which results are given for “MQRGIVWVVDDDSSIRWVLERALAGAGLTCTTFENGAEVLEALASKTPDVLLSDIRMPGMDGLALLKQIKQRHPMLPVIIMTAHSDLDAAVSAYQQGAFDYLPKPFDIDEAVALVERAISHYQEQQQPRNVQLNGPTTDIIGEAPAMQDVFRIIGRLSRSSISVLINGESGTGKELVAHALHRHSPRAKAPFIALNMAAIPKDLIESELFGHEKGAFTGANTIRQGRFEQADGGTLFLDEIGDMPLDVQTRLLRVLADGQFYRVGGYAPVKVDVRIIAATHQNLEQRVQEGKFREDLFHRLNVIRVHLPPLRERREDIPRLARHFLQVAARELGVEAKLLHPETEAALTRLAWPGNVRQLENTCRWLTVMAAGQEVLIQDLPGELFESTVAESTSQMQPDSWATLLAQWADRALRSGHQNLLSEAQPELERTLLTTALRHTQGHKQEAARLLGWGRNTLTRKLKELGME [P0AFB8]”?
total protein half-life in vivo [1]: 5.64 ± 0.8 h; total protein half-life in vivo [2]: 5.18 ± 0.39 h; total protein half-life in vivo [3]: 4.86 ± 0.35 h; total protein half-life in vivo [4]: 5.263 ± 0.02 h; total protein half-life in vivo [5]: 4.32 ± 0.052 h; total protein half-life in vivo [6]: 2.678 ± 0.0012 h; total protein half-life in vivo [7]: 4.85 ± 0.1 h; total protein half-life in vivo [8]: 8.034 ± 0.033 h; total protein half-life in vivo [9]: 4.72 ± 0.12 h; total protein half-life in vivo [10]: 7.57 ± 0.25 h; total protein half-life in vivo [11]: 4.22 ± 0.085 h; total protein half-life in vivo [12]: 7.58 ± 0.097 h

Which results are given for “MKIITCYKCVPDEQDIAVNNADGSLDFSKADAKISQYDLNAIEAACQLKQQAAEAQVTALSVGGKALTNAKGRKDVLSRGPDELIVVIDDQFEQALPQQTASALAAAAQKAGFDLILCGDGSSDLYAQQVGLLVGEILNIPAVNGVSKIISLTADTLTVERELEDETETLSIPLPAVVAVSTDINSPQIPSMKAILGAAKKPVQVWSAADIGFNAEAAWSEQQVAAPKQRERQRIVIEGDGEEQIAAFAENLRKVI”?
total protein half-life in vivo [6]: 2.81 ± 0.21 h; total protein half-life in vivo [7]: 5.04 h; total protein half-life in vivo [8]: 10.2 h

Which “total protein half-life in vivo” value [1] does the source give for “MSQPLNADQELVSDVVACQLVIKQILDVLDVIAPVEVREKMSSQLKNIDFTNHPAAADPVTMRAIQKAIALIELKFTPQGESH [P0AD10]” here?
The value was 5.83 ± 0.39 h.

And the “total protein half-life in vivo” value [3]?
Its value is 5.15 h.

And the “total protein half-life in vivo” value [5]?
Its value is 3.91 ± 0.9 h.

What about the “total protein half-life in vivo” value [6] of the same sequence?
The value was 3.21 h.

And the “total protein half-life in vivo” value [7]?
The value was 4.53 ± 0.82 h.

What about the “total protein half-life in vivo” value [8] of the same sequence?
Its value is 8.31 ± 0.17 h.

And the “total protein half-life in vivo” value [9]?
Its value is 3.32 h.

What about the “total protein half-life in vivo” value [10] of the same sequence?
Its value is 6.2 h.

And the “total protein half-life in vivo” value [11]?
Its value is 4.76 ± 1.4 h.

And the “total protein half-life in vivo” value [12]?
The value was 10.3 ± 0.33 h.

Which “total protein half-life in vivo” value [5] does the source give for “MSKSHPRWRLAKKILTWLFFIAVIVLLVVYAKKVDWEEVWKVIRDYNRVALLSAVGLVVVSYLIYGCYDLLARFYCGHKLAKRQVMLVSFICYAFNLTLSTWVGGIGMRYRLYSRLGLPGSTITRIFSLSITTNWLGYILLAGIIFTAGVVELPDHWYVDQTTLRILGIGLLMIIAVYLWFCAFAKHRHMTIKGQKLVLPSWKFALAQMLISSVNWMVMGAIIWLLLGQSVNYFFVLGVLLVSSIAGVIVHIPAGIGVLEAVFIALLAGEHTSKGTIIAALLAYRVLYYFIPLLLALICYLLLESQAKKLRAKNEAAM” here?
The value was 4.62 ± 0.87 h.

Which “total protein half-life in vivo” value [1] does the source give for “MLELLYTALLYLIQPLIWIRLWVRGRKAPAYRKRWGERYGFYRHPLKPGGIMLHSVSVGETLAAIPLVRALRHRYPDLPITVTTMTPTGSERVQSAFGKDVQHVYLPYDLPDALNRFLNKVDPKLVLIMETELWPNLIAALHKRKIPLVIANARLSARSAAGYAKLGKFVRRLLRRITLIAAQNEEDGARFVALGAKNNQVTVTGSLKFDISVTPQLAAKAVTLRRQWAPHRPVWIATSTHEGEESVVIAAHQALLQQFPNLLLILVPRHPERFPDAINLVRQAGLSYITRSSGEVPSTSTQVVVGDTMGELMLLYGIADLAFVGGSLVERGGHNPLEAAAHAIPVLMGPHTFNFKDICARLEQASGLITVTDATTLAKEVSSLLTDADYRSFYGRHAVEVLYQNQGALQRLLQLLEPYLPPKTH [P0AC75]” here?
The value was 5.95 ± 0.12 h.

And the “total protein half-life in vivo” value [2]?
Its value is 6.64 ± 0.62 h.

What about the “total protein half-life in vivo” value [3] of the same sequence?
The value was 6.5 ± 0.35 h.

What about the “total protein half-life in vivo” value [4] of the same sequence?
The value was 6.08 ± 0.49 h.

And the “total protein half-life in vivo” value [5]?
The value was 6.219 ± 0.038 h.

What about the “total protein half-life in vivo” value [6] of the same sequence?
The value was 3.23 ± 0.044 h.

And the “total protein half-life in vivo” value [7]?
The value was 6.2 ± 0.5 h.

And the “total protein half-life in vivo” value [8]?
The value was 10.6 ± 1.9 h.

What about the “total protein half-life in vivo” value [9] of the same sequence?
Its value is 6.524 ± 0.011 h.

And the “total protein half-life in vivo” value [10]?
The value was 13.7 ± 1.2 h.

What about the “total protein half-life in vivo” value [11] of the same sequence?
Its value is 6.317 ± 0.014 h.

What about the “total protein half-life in vivo” value [12] of the same sequence?
Its value is 11.9 ± 0.48 h.
